# B1: COVID19_P07_B08 (scFv, V domains shown)
# VH: EVQLVESGGGLVQPGGSLRLSCAASGFTFDDYAMHWVRQAPGKGLEWVSVISGSGRNTYYADSVKGRFTISRDNSKNTLYLQMNSLRAEDTAVYYCVTNMDNSRDYFPHYFHDMDVWGQGTLVTVSS
# VL: not shown
# B2: COVID19_P07_D05 (scFv, V domains shown)
# VH: EVQLVESGGGLVQPGGSLRLSCAASGFTFRSYAMHWVRQAPGKGLEWVAVISHDASNKYYADSVKGRFTISRDNSKNTLYLQMNSLRAEDTAVYYCVTNMDNSRDYFPHYFHDMDVWGQGTLVTVSS
# VL: not shown
# B3: COVID19_P07_D10 (scFv, V domains shown)
# VH: EVQLVESGGGLVQPGGSLRLSCAASGFTFDDYAMHWVRQAPGKGLEWVSAVSTTGGSTYYADSVKGRFTISRDNSKNTLYLQMNSLRAEDTAVYYCVTNMDNSRDYFPHYFHDMDVWGQGTLVTVSS
# VL: not shown
# B4: COVID19_P07_E03 (scFv, V domains shown)
# VH: EVQLVESGGGLVQPGGSLRLSCAASGFIFSSFGMHWVRQAPGKGLEWVSAISDSGDATQYADSVKGRFTISRDNSKNTLYLQMNSLRAEDTAVYYCVTNMDNSRDYFPHYFHDMDVWGQGTLVTVSS
# VL: not shown
# B5: COVID19_P07_E10 (scFv, V domains shown)
# VH: EVQLVESGGGLVQPGGSLRLSCAASGFTFSSYGMHWVRQAPGKGLEWVAVISYDGSNKYYADSVKGRFTISRDNSKNTLYLQMNSLRAEDTAVYYCVTNMDNSRDYFPHYFHDMDVWGQGTLVTVSS
# VL: DIVMTQSPLSLPVTPGEPASISCRSSQSLLHSNGYNDLDWYLQKPGQSPQLLIYGGSNGASGVPDRFSGSGSGTDFTLKISRVEAEDVGVYYCMQALQTPLTFGGGTKVEIKR
# B6: COVID19_P07_F05 (scFv, V domains shown)
# VH: EVQLVESGGGLVQPGGSLRLSCAASGFTFSNYAMHWVRQAPGKGLEWVSGISSGGSGTHYADSVKGRFTISRDNSKNTLYLQMNSLRAEDTAVYYCVTNMDNSRDYFPHYFHDMDVWGQGTLVTVSS
# VL: not shown
# B7: COVID19_P07_G08 (scFv, V domains shown)
# VH: EVQLVESGGGLVQPGGSLRLSCAASGFTFSSYAMHWVRQAPGKGLEWVSAISGSGGSTYYADSVKGRFTISRDNSKNTLYLQMNSLRAEDTAVYYCVTNMDNSRDYFPHYFHDMDVWGQGTLVTVSS
# VL: not shown
# B8: COVID19_P07_H03 (scFv, V domains shown)
# VH: EVQLVESGGGLVQPGGSLRLSCAASGFTFSSYAMHWVRQAPGKGLEWVSAISRSGDSAYYADSVKGRFTISRDNSKNTLYLQMNSLRAEDTAVYYCVTNMDNSRDYFPHYFHDMDVWGQGTLVTVSS
# VL: not shown
# B9: COVID19_P07_H05 (scFv, V domains shown)
# VH: EVQLVESGGGLVQPGGSLRLSCAASGFTFSSYGMHWIRQAPGKGLEWVSVITGDGRNKFYADSVKGRFTISRDNSKNTLYLQMNSLRAEDTAVYYCVTNMDNSRDYFPHYFHDMDVWGQGTLVTVSS
# VL: not shown
# B10: COVID19_P07_H06 (scFv, V domains shown)
# VH: EVQLVESGGGLVQPGGSLRLSCAASGFTFSSYGMHWIRQAPGKGLEWVSAVSASGDRTHYADSVKGRFTISRDNSKNTLYLQMNSLRAEDTAVYYCVTNLDNSRDYFPHYFHDMDVWGQGTLVTVSS
# VL: not shown
# B11: COVID19_P08_A10 (scFv, V domains shown)
# VH: EVQLVESGGGLVQPGGSLRLSCAASGFIFNDYGMHWVRQAPGKGLEWVSAISGSGGNTYYADSVKGRFTISRDNSKNTLYLQMNSLRAEDTAVYYCVTNMDNSRDYFPHYFHDMDVWGQGTLVTVSS
# VL: not shown
# B12: COVID19_P08_B05 (scFv, V domains shown)
# VH: EVQLVESGGGLVQPGGSLRLSCAASGFTFSSYGMHWVRQAPGKGLEWVSAISGSGGTTYYADSVKGRFTISRDNSKNTLYLQMNSLRAEDTAVYYCVTNMDNSRDYFPHYFHDMDVWGQGTLVTVSS
# VL: not shown
# B13: COVID19_P08_C02 (scFv, V domains shown)
# VH: EVQLVESGGGLVQPGGSLRLSCAASGFTFSSYAMHWVRQAPGKGLEWVSGVSASGGGPYYADSVKGRFTISRDNSKNTLYLQMNSLRAEDTAVYYCVTNMDNSRDYFPHYFHDMDVWGQGTLVTVSS
# VL: not shown
# B14: COVID19_P08_D11 (scFv, V domains shown)
# VH: EVQLVESGGGLVQPGGSLRLSCAASGFKFNTYAMHWVRQAPGKGLEWVSAISITGGNTYYADSVKGRFTISRDNSKNTLYLQMNSLRAEDTAVYYCVTNMDNSRDYFPHYFHDMDVWGQGTLVTVSS
# VL: not shown
# B15: COVID19_P08_F08 (scFv, V domains shown)
# VH: EVQLVESGGGLVQPGGSLRLSCAASGFTFTSYGMHWVRQAPGKGLEWVSAISGSGGTTYYADSVKGRFTISRDNSKNTLYLQMNSLRAEDTAVYYCVTNMDNSRDYFPHYFHDMDVWGQGTLVTVSS
# VL: not shown
# B16: COVID19_P19_D02 (scFv, V domains shown)
# VH: EVQLVESGGGLVQPGGSLRLSCAASGFTFSSYGMHWVRQAPGKGLEWVAAISGSGGSTHYADSVKGRFTISRDNSKNTLYLQMNSLRAEDTAVYYCVTNMDNSRDYFPHYFHDMDVWGQGTLVTVSS
# VL: not shown
# B17: COVID19_P19_H03 (scFv, V domains shown)
# VH: EVQLVESGGGLVQPGGSLRLSCAASGFTFSSYGMHWVRQAPGKGLEWVAVISYDGSNKYYADSVKGRFTISRDNSKNTLYLQMNSLRAEDTAVYYCVTNMDNSRDYFPHYFHDMDVWGQGTLVTVSS
# VL: not shown
# B18: COVID19_P20_F04 (scFv, V domains shown)
# VH: EVQLVESGGGLVQPGGSLRLSCAASGFAFSSYALHWVRQAPGKGLEWVSAISGSGGDTYYADSVKGRFTISRDNSKNTLYLQMNSLRAEDTAVYYCVTNMDNSRDYFPHYFHDMDVWGQGTLVTVSS
# VL: DIVMTQSPLSLPVTPGEPASISCRSSQSLLHRNGYNYVDWYLQKPGQSPQLLIYLGSNRASGVPDRFSGSGSGTDFTLRISRVEAEDVGVYYCMQARQTPLTFGGGTKVEIKR
# B19: COVID19_P20_B01 (scFv, V domains shown)
# VH: EVQLVESGGGLVQPGGSLRLSCAASGFTFSSYAMHWVRQAPGKGLEWVAVISSSGRNKFYADSVKGRFTISRDNSKNTLYLQMNSLRAEDTAVYYCVTNMDNSRDYFPHYFHDMDVWGQGTLVTVSS
# VL: not shown
# B20: COVID19_P20_F05 (scFv, V domains shown)
# VH: EVQLVESGGGLVQPGGSLRLSCAASGFTFSTYAMHWVRQAPGKGLEWVSGVSWNGSRTHYADSVKGRFTISRDNSKNTLYLQMNSLRAEDTAVYYCVTNMDNSRDYFPHYFHDMDVWGQGTLVTVSS
# VL: not shown
# B21: COVID19_P07_D04 (scFv, V domains shown)
# VH: EVQLVESGGGLVQPGGSLRLSCAASGFRFSDHPMHWVRQAPGKGLEWVAVITGSGRNKFYADSVKGRFTISRDNSKNTLYLQMNSLRAEDTAVYYCVTNMDNSRDYFPHYFHDMDVWGQGTLVTVSS
# VL: DIVMTQSPLSLPVTPGEPASISCRSSQSLLHRNGYNYLDWYLQKPGQSPQLLIYGASTRATGVPDRFSGSGSGTDFTLKISRVEAEDVGVYYCTQSLQTPLTFGGGTKVEIKR
# B22: COVID19_P07_D08 (scFv, V domains shown)
# VH: EVQLVESGGGLVQPGGSLRLSCAASGFTFRNYAMHWVRQAPGKGLEWVSAIGTGGDTYYADSVKGRFTISRDNSKNTLYLQMNSLRAEDTAVYYCVTNMDNSRDYFPHYFHDMDVWGQGTLVTVSS
# VL: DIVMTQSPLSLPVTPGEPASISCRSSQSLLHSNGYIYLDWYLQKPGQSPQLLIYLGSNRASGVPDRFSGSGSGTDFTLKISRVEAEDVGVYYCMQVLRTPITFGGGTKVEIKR
# B23: COVID19_P07_A12 (scFv, V domains shown)
# VH: EVQLVESGGGLVQPGGSLRLSCAASGFTFSNYAMHWVRQAPGKGLEWVSAIGAGGGTYYADSVKGRFTISRDNSKNTLYLQMNSLRAEDTAVYYCVTNMDNSRDYFPHYFHDMDVWGQGTLVTVSS
# VL: DIVMTQSPLSLPVTPGEPASISCRSSQSLLYSDGDTYLDWYLQKPGQSPQLLIYLGSNRASGVPDRFSGSGSGTDFTLKISRVEAEDVGVYYCMQALQTPLTFGGGTKVEIKR
# Legend:
# Experiment in all cases: SPR, scFv captured via anti-V5, RBD as analyte
# [1] = target: SARS-CoV-1 Receptor Binding Domain (RBD) protein (SARS-CoV-1, UniProt P59594 306-527)
# [2] = target: MERS Receptor Binding Domain (RBD) protein (MERS coronavirus, UniProt K9N5Q8 367-606)
# [3] = target: SARS-CoV-2 Receptor Binding Domain (RBD) protein (SARS-CoV-2, UniProt P0DTC2 319-541)
Binder,binding result [1],binding result [2],Kd [3] [nM],koff [3] [s⁻¹],kon [3] [M⁻¹ s⁻¹]
B1,no binding (tested: up to 300 nM),no binding (tested: up to 300 nM),–,–,–
B2,no binding (tested: up to 300 nM),no binding (tested: up to 300 nM),–,–,–
B3,no binding (tested: up to 300 nM),no binding (tested: up to 300 nM),–,–,–
B4,no binding (tested: up to 300 nM),no binding (tested: up to 300 nM),–,–,–
B5,no binding (tested: up to 300 nM),no binding (tested: up to 300 nM),–,–,–
B6,no binding (tested: up to 300 nM),no binding (tested: up to 300 nM),–,–,–
B7,no binding (tested: up to 300 nM),no binding (tested: up to 300 nM),–,–,–
B8,no binding (tested: up to 300 nM),no binding (tested: up to 300 nM),–,–,–
B9,no binding (tested: up to 300 nM),no binding (tested: up to 300 nM),–,–,–
B10,no binding (tested: up to 300 nM),no binding (tested: up to 300 nM),–,–,–
B11,no binding (tested: up to 300 nM),no binding (tested: up to 300 nM),–,–,–
B12,no binding (tested: up to 300 nM),no binding (tested: up to 300 nM),–,–,–
B13,no binding (tested: up to 300 nM),no binding (tested: up to 300 nM),–,–,–
B14,no binding (tested: up to 300 nM),no binding (tested: up to 300 nM),–,–,–
B15,no binding (tested: up to 300 nM),no binding (tested: up to 300 nM),–,–,–
B16,no binding (tested: up to 300 nM),no binding (tested: up to 300 nM),–,–,–
B17,no binding (tested: up to 300 nM),no binding (tested: up to 300 nM),–,–,–
B18,no binding (tested: up to 300 nM),no binding (tested: up to 300 nM),–,–,–
B19,no binding (tested: up to 300 nM),no binding (tested: up to 300 nM),–,–,–
B20,no binding (tested: up to 300 nM),no binding (tested: up to 300 nM),–,–,–
B21,no binding (tested: up to 300 nM),no binding (tested: up to 300 nM),2.3,5.7e-05,24400
B22,no binding (tested: up to 300 nM),no binding (tested: up to 300 nM),1.7,5.7e-05,34100
B23,no binding (tested: up to 300 nM),no binding (tested: up to 300 nM),–,–,–

# — patent publication US11053304 (CENTIVAX, dated 2021)
